Results on 1 molecule are retold here after patent EP4790069A1 (Kyoto University, dated 2026).

One assay concerns the target T1, mouse CD153 (mouse, UniProt P32972 1-239).
T1 construct: whole, on cells; also called mCD153
T1 sequence (looked up): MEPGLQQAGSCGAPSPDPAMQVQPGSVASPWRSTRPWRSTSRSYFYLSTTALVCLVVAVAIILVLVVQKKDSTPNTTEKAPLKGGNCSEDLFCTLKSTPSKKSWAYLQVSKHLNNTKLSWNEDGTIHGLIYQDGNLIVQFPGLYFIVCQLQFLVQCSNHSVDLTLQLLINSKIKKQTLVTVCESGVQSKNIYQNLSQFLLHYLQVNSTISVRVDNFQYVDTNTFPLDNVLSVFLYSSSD
Kind of assay: flow cytometry on EL4 cells stably expressing mouse CD153.

A further assay deals with T2, human CD153 (human, UniProt P32971 1-234).
T2 construct: whole, on cells; also called hCD153; CD30L
T2 sequence (looked up): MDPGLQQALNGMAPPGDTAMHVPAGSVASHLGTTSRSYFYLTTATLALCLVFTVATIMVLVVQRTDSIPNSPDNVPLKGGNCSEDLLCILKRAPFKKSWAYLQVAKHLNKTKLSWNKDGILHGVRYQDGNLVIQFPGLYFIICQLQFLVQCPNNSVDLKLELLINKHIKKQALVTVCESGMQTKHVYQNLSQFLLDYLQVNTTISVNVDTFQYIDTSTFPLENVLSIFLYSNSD
Kind of assay: flow cytometry, hybridoma supernatant on 293H cells expressing hCD153.

B1: anti-human CD153 monoclonal antibody 2H7-9 (antibody, V domains shown)
VH: RVQLQQSGAELVRPGTSVKISCKASGYAFTNYWLGWVKQRPGHGLEWIGDIYPGNYNSYSNEKFKGKATLTADESSSTAYMQLSSLTSEDSAVYFCARIYGNYWIFDVWGAGTTVTVSS
VL: QIVLTQSPAIMSASPGEKVTMTCSASSSVNYMHWFQQKPGTSPKLWIYSTSDLASGVPARFSGSGSGTSYSLTISRMEAEDAATYYCQQRSSYPLTFGAGTKLELK
notes: Mouse hybridoma antibody (CD153-KO B6 mouse), purified with Protein A and detected with anti-mouse IgG
On to B1, for which the binding result in the assay with mouse CD153 is listed as “no binding (tested: 160 µg/ml to 0.00977 µg/ml)”; with human CD153, “binds”.
